Earlier results in paper PMC7500696.

Target: tropomyosin N-terminal peptide N-terminal fragment (UniProt P09493)
Test: CD

Leiomodin-2 Lmod2s1 Lmod2s1 (from UniProt Q3UHZ5)
Kd: 1000 nM
